Experimental findings from patent US9370316B2, “MRI estimation of contrast agent concentration using a neural network approach” (HENRY FORD HEALTH SYSTEM, priority 2007, dated 2016) are described below.

The nature of this data set: MRI (TOMROP) after injection of Gd-BSA in 9 L rat model of cerebral gliosarcoma. The class given is in vivo, Fisher 344 rats. To be noted: rats with 9 L cerebral tumor. An excerpt:
Given a “gold-standard” map of CA concentration, an ANN is trainable to directly estimate CA concentration from MRI image sets in which the time-varying behavior of the images depends, albeit nonlinearly, on CA concentration. Some of our studies using TOMROP (“T One by Multiple Read Out Pulses”) image sets as inputs in a set of tubular gel phantoms are supportive. In accordance with some embodiments, without limitation, an ANN for estimating CA concentration in the brain tissue of 9 male Fisher rats, using as inputs TOMROP signal changes after injection of Gd-BSA in a 9 L rat model of cerebral gliosarcoma (Ewing et al. 2006), was designed, trained, optimized, and tested. The MRI experiment was followed by quantitative autoradiography (“QAR”) using radioiodinated serum albumin (“RISA”), thus essentially replicating the MRI as to its timing, procedures, and indicator. The autoradiogram of the QAR procedure served as the training set.
Animal Studies: As part of our studies to compare MRI estimates of transfer constant to QAR estimates (results not included here), nine animals (Fisher 344 rats) with 9 L tumor (Ewing et al. 2006) were studied. Mean tumor age was 14.6±0.7 days (range 14 to 16 days) for all animals. […]

Turning to “Gadolinium-labeled Bovine Serum Albumin [Gd-BSA]”, the “Extravasation of Gd-BSA” value is “occurred within the tumors and at tumor borders in all animals”.
